Assays:
[1] = target: T1, GST-MPK3 (Arabidopsis, UniProt Q39023 1-370); assay: pull-down; GST or GST-MPK3/MPK6 immobilised on glutathione beads, 4 μg His-tagged ABI4, 4 °C for 4 h; washed with 50 mM Tris-HCl pH 7.4, 100 mM NaCl, 1 mM EDTA, 0.5% Nonidet P-40; anti-His immunoblot; settings: both partners purified
T1 construct: MPK3, Arabidopsis, full length, in PGEX5X-1; also called GST-tagged MPK3
T1 sequence (looked up): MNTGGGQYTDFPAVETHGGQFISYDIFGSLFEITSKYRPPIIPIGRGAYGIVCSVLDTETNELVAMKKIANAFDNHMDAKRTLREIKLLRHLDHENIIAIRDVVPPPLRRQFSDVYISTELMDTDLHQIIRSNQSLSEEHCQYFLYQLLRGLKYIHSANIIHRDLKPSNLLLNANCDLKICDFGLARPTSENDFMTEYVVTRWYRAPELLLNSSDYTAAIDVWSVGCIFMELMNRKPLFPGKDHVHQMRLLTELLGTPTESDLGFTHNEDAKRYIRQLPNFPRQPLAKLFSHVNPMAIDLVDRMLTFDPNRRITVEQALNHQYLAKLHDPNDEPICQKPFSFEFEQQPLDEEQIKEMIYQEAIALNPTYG

[2] = target: T2, GST-MPK6 (Arabidopsis, UniProt Q39026 1-395); assay: as above; settings: both partners purified
T2 construct: MPK6, Arabidopsis, full length, in PGEX5X-1; also called GST-tagged MPK6
T2 sequence (Q39026 whole entry): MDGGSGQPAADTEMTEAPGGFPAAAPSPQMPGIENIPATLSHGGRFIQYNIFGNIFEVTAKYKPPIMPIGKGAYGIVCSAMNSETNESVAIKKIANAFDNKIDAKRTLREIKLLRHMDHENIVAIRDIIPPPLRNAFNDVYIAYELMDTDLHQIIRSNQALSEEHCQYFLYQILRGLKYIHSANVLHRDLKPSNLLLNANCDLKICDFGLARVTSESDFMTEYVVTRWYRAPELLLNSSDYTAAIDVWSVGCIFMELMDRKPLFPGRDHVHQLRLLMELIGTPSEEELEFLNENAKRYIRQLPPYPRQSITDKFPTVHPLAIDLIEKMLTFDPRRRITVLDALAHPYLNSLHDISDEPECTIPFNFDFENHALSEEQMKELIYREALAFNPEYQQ

binding result [1]: binds | binding result [2]: binds
B1: His-tagged ABI4 (natural protein)
chain: not shown
notes: ABI4, Arabidopsis; the ABI4 cDNA was inserted into the pCold vector; The pull-down methods name only 'recombinant His-tagged ABI4 protein'; also called recombinant ABI4

Source: paper PMC4942575, “Plastid-nucleus communication involves calcium-modulated MAPK signalling” (Nature Communications, 2016)
